{"source": "patent US20210206877A1", "about": "(Genentech, published 2021)", "data": [{"target": "BACE1 endogenous to primary cortical neurons from E16.5 CD1 mice (mouse, UniProt P56818 46-501)", "sequence (P56818 46-501)": "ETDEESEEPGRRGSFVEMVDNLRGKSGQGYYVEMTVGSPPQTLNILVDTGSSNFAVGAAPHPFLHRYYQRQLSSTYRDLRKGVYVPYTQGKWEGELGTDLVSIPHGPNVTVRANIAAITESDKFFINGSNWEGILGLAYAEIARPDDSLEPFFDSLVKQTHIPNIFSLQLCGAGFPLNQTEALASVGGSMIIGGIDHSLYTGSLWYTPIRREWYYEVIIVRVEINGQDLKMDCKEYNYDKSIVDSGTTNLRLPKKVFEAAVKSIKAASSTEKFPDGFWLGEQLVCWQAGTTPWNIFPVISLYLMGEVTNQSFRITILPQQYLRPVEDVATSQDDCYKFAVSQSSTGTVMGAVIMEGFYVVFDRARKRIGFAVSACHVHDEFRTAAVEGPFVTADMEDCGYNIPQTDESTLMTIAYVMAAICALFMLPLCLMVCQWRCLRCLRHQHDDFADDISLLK", "assay": "cell-based or functional assay", "units": {"max % inhibition, Abeta x-40 in mouse cortical neurons": "%"}, "values": [{"binder": "5930 (antibody, V domains shown) VH: QVQLVQSGAEVKKPGSSVKVSCKASGGTLSGYAISWVRQAPGQGLEWMGNIIPGFGTANYAQKSQGRVTITADESTSTAYMELSSLRSEDTAVYYCARSGGTRYGMLDVWGQGTMVTVSS VL: EIVMTQSPATLSVSPGERATLSCRASQSVGSNLAWYQQKPGQAPRLLIYGASTRATGIPARFSGSGSGTEFTLTISSLQSEDFAVYYCQQLYTWPPRTFGGGTKVEIK", "max % inhibition, Abeta x-40 in mouse cortical neurons": 74}, {"binder": "5987 (antibody, V domains shown) VH: QVQLVQSGAEVKKPGSSVKVSCKASGGTLSGYAISWVRQAPGQGLEWMGNIIPGFGTANYAQKSQGRVTITADESTSTAYMELSSLRSEDTAVYYCARSGGTRYGMLDVWGQGTMVTVSS VL: EIVMTQSPATLSVSPGERATLSCRASQSVSSNLAWYQQKPGQAPRLLIYGASTRATGIPARFSGSGSGTEFTLTISSLQSEDFAVYYCQQLFLWPPRTFGGGTKVEIK", "max % inhibition, Abeta x-40 in mouse cortical neurons": 69}, {"binder": "5988 (antibody, V domains shown) VH: QVQLVQSGAEVKKPGSSVKVSCKASGGTLSGYAISWVRQAPGQGLEWMGNIIPGFGTANYAQKSQGRVTITADESTSTAYMELSSLRSEDTAVYYCARSGGTRYGMLDVWGQGTMVTVSS VL: GIVMTQSPATLSVSPGERATLSCRASQSVGSNLAWYQQKPGQAPRLLIYGASTRATGIPARFSGSGSGTEFTLTISSLQSEDFAVYYCQQLYTWPPRTFGGGTKVEIK", "max % inhibition, Abeta x-40 in mouse cortical neurons": 75}, {"binder": "6270 (antibody, V domains shown) VH: QVQLVQSGAEVKKPGSSVKVSCKASGGTFSGYGISWVRQAPGQGLEWMGNIIPGFGTANYAQKFQGRVTITADESTSTAYMELSSLRSEDTAVYYCARSGGTKYGMLDVWGQGTMVTVSS VL: EIVMTQSPATLSVSPGERATLSCRASQSVSSNLAWYQQKPGQAPRLLIYGASTRATGIPARFSGSGSGTEFTLTISSLQSEDFAVYYCQQLLLWPPRTFGGGTKVEIK", "max % inhibition, Abeta x-40 in mouse cortical neurons": 85}, {"binder": "6271 (antibody, V domains shown) VH: QVQLVQSGAEVKKPGSSVKVSCKASGGTISGYGISWVRQAPGQGLEWMGNIIPGFGTANYAQKFQGRVTITADESTSTAYMELSSLRSEDTAVYYCARSGGTKYGMLDVWGQGTMVTVSS VL: EIVMTQSPATLSVSPGERATLSCRASQSVSSNLAWYQQKPGQAPRLLIYGASTRATGIPARFSGSGSGTEFTLTISSLQSEDFAVYYCQQLILWPPRTFGGGTKVEIK", "max % inhibition, Abeta x-40 in mouse cortical neurons": 83}, {"binder": "6272 (antibody, V domains shown) VH: QVQLVQSGAEVKKPGSSVKVSCKASGGTFSGYGISWVRQAPGQGLEWMGNIIPGFGTANYAQKFQGRVTITADESTSTAYMELSSLRSEDTAVYYCARSGGTKYGMLDVWGQGTMVTVSS VL: EIVMTQSPATLSVSPGERATLSCRASQSVSSNLAWYQQKPGQAPRLLIYGASTRATGIPARFSGSGSGTEFTLTISSLQSEDFAVYYCQQLFLWPPRTFGGGTKVEIK", "max % inhibition, Abeta x-40 in mouse cortical neurons": 82}, {"binder": "6273 (antibody, V domains shown) VH: QVQLVQSGAEVKKPGSSVKVSCKASGGTFSGYGISWVRQAPGQGLEWMGNIIPGFGTANYAQKFQGRVTITADESTSTAYMELSSLRSEDTAVYYCARSGGTKYGMLDVWGQGTMVTVSS VL: EIVMTQSPATLSVSPGERATLSCRASQSVSSNIAWYQQKPGQAPRLLIYGASTRATGIPARFSGSGSGTEFTLTISSLQSEDFAVYYCQQLLLWPPRTFGGGTKVEIK", "max % inhibition, Abeta x-40 in mouse cortical neurons": 82}, {"binder": "6274 (antibody, V domains shown) VH: QVQLVQSGAEVKKPGSSVKVSCKASGGTFSGYGISWVRQAPGQGLEWMGNIIPGFGTANYAQKFQGRVTITADESTSTAYMELSSLRSEDTAVYYCARSGGTKYGMLDVWGQGTMVTVSS VL: EIVMTQSPATLSVSPGERATLSCRASQSVSSHLAWYQQKPGQAPRLLIYGASTRATGIPARFSGSGSGTEFTLTISSLQSEDFAVYYCQQLILWPPRTFGGGTKVEIK", "max % inhibition, Abeta x-40 in mouse cortical neurons": 85}]}]}
